B1: library; numbered along this chain (parent)
chain: MAAAGGARLLRAASAVLGGPAGRWLHHAGSRAGSSGLLRNRGPGGSAEASRSLSVSARARSSSEDKITVHFINRDGETLTTKGKVGDSLLDVVVENNLDIDGFGACEGTLACSTCHLIFEDHIYEKLDAITDEENDMLDLAYGLTDRSRLGCQICLTKSMDNMTVRVPETVADARQSIDVGKTS

Variants of: B1
Assay: scaled log2 fold change in cell abundance, elesclomol vs control (0 = silent mean, 1 = nonsense mean) (scaled log2 ratio); higher = higher viability under elesclomol (loss of FDX1 cuproptosis function)
Conditions: glucose 10 mM
[1] = with ABC1 FDX1 KO, elesclomol 5 nM, 14 days
[2] = with HEK293T FDX1 KO, elesclomol 40 nM, 11 days
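Also: variant abundance is its share of total variant reads in each endpoint sample, from next-generation sequencing of the integrated ORF PCR-amplified out of genomic DNA.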

C155G
scaled log2 fold change [1]: -0.0608
scaled log2 fold change [2]: -0.601

C155Y
scaled log2 fold change [1]: -0.378
scaled log2 fold change [2]: -0.939

C155L
scaled log2 fold change [1]: 0.0756
scaled log2 fold change [2]: -0.359

C155A
scaled log2 fold change [1]: -0.331
scaled log2 fold change [2]: -0.584

K158R
scaled log2 fold change [1]: 0.0874
scaled log2 fold change [2]: -0.484

K158N
scaled log2 fold change [1]: -0.716
scaled log2 fold change [2]: -0.562

K158V
scaled log2 fold change [1]: 0.0943
scaled log2 fold change [2]: -0.343

K158D
scaled log2 fold change [1]: 0.233
scaled log2 fold change [2]: 0.95

K158Q
scaled log2 fold change [1]: -0.363
scaled log2 fold change [2]: -0.446

K158F
scaled log2 fold change [1]: 0.241
scaled log2 fold change [2]: 0.189

K158H
scaled log2 fold change [1]: 0.174
scaled log2 fold change [2]: -0.704

K158E
scaled log2 fold change [1]: -0.265
scaled log2 fold change [2]: 0.159

K158T
scaled log2 fold change [1]: -0.0261
scaled log2 fold change [2]: 0.646

K158W
scaled log2 fold change [1]: 0.161
scaled log2 fold change [2]: -0.562

K158A
scaled log2 fold change [1]: -0.146
scaled log2 fold change [2]: 0.138

K158I
scaled log2 fold change [1]: -0.0888
scaled log2 fold change [2]: -0.515

K158Y
scaled log2 fold change [1]: 0.0178
scaled log2 fold change [2]: -1.33

K158G
scaled log2 fold change [1]: -0.426
scaled log2 fold change [2]: -0.842

K158M
scaled log2 fold change [1]: 0.185
scaled log2 fold change [2]: -0.505

K158P
scaled log2 fold change [1]: 0.0465
scaled log2 fold change [2]: 0.515

K158S
scaled log2 fold change [1]: 0.23
scaled log2 fold change [2]: -0.645

K158C
scaled log2 fold change [1]: 0.225
scaled log2 fold change [2]: 0.192

K158L
scaled log2 fold change [1]: 0.172
scaled log2 fold change [2]: -0.122

D161H
scaled log2 fold change [1]: -0.161
scaled log2 fold change [2]: -0.464

D161I
scaled log2 fold change [1]: 0.0246
scaled log2 fold change [2]: -0.332

D161N
scaled log2 fold change [1]: 0.064
scaled log2 fold change [2]: -0.539

D161P
scaled log2 fold change [1]: 0.586
scaled log2 fold change [2]: 0.0492

D161W
scaled log2 fold change [1]: 0.197
scaled log2 fold change [2]: -0.0327

D161C
scaled log2 fold change [1]: 0.35
scaled log2 fold change [2]: 0.607

D161M
scaled log2 fold change [1]: -0.0698
scaled log2 fold change [2]: -0.0785

D161T
scaled log2 fold change [1]: 0.262
scaled log2 fold change [2]: -0.0378

D161G
scaled log2 fold change [1]: -0.198

D161A
scaled log2 fold change [1]: -0.111

D161K
scaled log2 fold change [1]: 0.234
scaled log2 fold change [2]: 0.181

D161V
scaled log2 fold change [1]: -0.562
scaled log2 fold change [2]: 0.103

D161F
scaled log2 fold change [1]: 0.305
scaled log2 fold change [2]: 0.236

D161R
scaled log2 fold change [1]: 0.243
scaled log2 fold change [2]: 0.406

D161S
scaled log2 fold change [1]: 0.299
scaled log2 fold change [2]: -0.0997

D161L
scaled log2 fold change [1]: 0.312
scaled log2 fold change [2]: 0.16

D161Y
scaled log2 fold change [1]: 0.284
scaled log2 fold change [2]: 0.145

D161E
scaled log2 fold change [1]: -0.0246
scaled log2 fold change [2]: 0.705

D161Q
scaled log2 fold change [1]: 0.0687

L156Y
scaled log2 fold change [1]: 1.07
scaled log2 fold change [2]: 0.941

L156R
scaled log2 fold change [1]: 1.06
scaled log2 fold change [2]: 1.1

L156T
scaled log2 fold change [1]: 0.139
scaled log2 fold change [2]: 0.0718

L156M
scaled log2 fold change [1]: -0.318
scaled log2 fold change [2]: -0.383

L156E
scaled log2 fold change [1]: 1.11
scaled log2 fold change [2]: 1.53

L156I
scaled log2 fold change [1]: -0.0958
scaled log2 fold change [2]: -0.948

L156A
scaled log2 fold change [1]: 0.194
scaled log2 fold change [2]: -1

L156S
scaled log2 fold change [1]: 0.388
scaled log2 fold change [2]: 0.852

L156H
scaled log2 fold change [1]: 1.07
scaled log2 fold change [2]: 1.03

L156W
scaled log2 fold change [1]: 1.06
scaled log2 fold change [2]: 1.36

L156D
scaled log2 fold change [1]: 1.12
scaled log2 fold change [2]: 0.926

L156K
scaled log2 fold change [1]: 1.05
scaled log2 fold change [2]: 1.71

L156G
scaled log2 fold change [1]: 0.709
scaled log2 fold change [2]: 0.904

L156V
scaled log2 fold change [1]: -0.38
scaled log2 fold change [2]: 0.664

L156Q
scaled log2 fold change [1]: 0.697
scaled log2 fold change [2]: 0.562

L156C
scaled log2 fold change [1]: 0.353
scaled log2 fold change [2]: 0.332

L156N
scaled log2 fold change [1]: 0.8
scaled log2 fold change [2]: 0.347

L156F
scaled log2 fold change [1]: 0.599
scaled log2 fold change [2]: -0.036

L156P
scaled log2 fold change [1]: 0.268
scaled log2 fold change [2]: 0.446

C152Y
scaled log2 fold change [1]: 1.15
scaled log2 fold change [2]: 1.64

C152A
scaled log2 fold change [1]: 1.22
scaled log2 fold change [2]: 1.33

C152I
scaled log2 fold change [1]: 1.12
scaled log2 fold change [2]: 1.09

C152M
scaled log2 fold change [1]: 1.16
scaled log2 fold change [2]: 0.861

C152R
scaled log2 fold change [1]: 1.08
scaled log2 fold change [2]: 1.5

C152V
scaled log2 fold change [1]: 1.23
scaled log2 fold change [2]: 1.12

C152N
scaled log2 fold change [1]: 1
scaled log2 fold change [2]: 2.21

C152P
scaled log2 fold change [1]: 1.08
scaled log2 fold change [2]: 1.13

C152D
scaled log2 fold change [1]: 1.1
scaled log2 fold change [2]: 1.19

C152T
scaled log2 fold change [1]: 1.06
scaled log2 fold change [2]: 1.22

C152H
scaled log2 fold change [1]: 1.12
scaled log2 fold change [2]: 0.972

C152S
scaled log2 fold change [1]: 1.17
scaled log2 fold change [2]: 1.18

C152F
scaled log2 fold change [1]: 1.1
scaled log2 fold change [2]: 2.08

C152W
scaled log2 fold change [1]: 1.13
scaled log2 fold change [2]: 1.28

C152G
scaled log2 fold change [1]: 1.06
scaled log2 fold change [2]: 1.28

C152E
scaled log2 fold change [1]: 1.03
scaled log2 fold change [2]: 1.1

C152Q
scaled log2 fold change [1]: 1.01
scaled log2 fold change [2]: 1.18

C152K
scaled log2 fold change [1]: 1.05
scaled log2 fold change [2]: 0.942

C152L
scaled log2 fold change [1]: 1.14
scaled log2 fold change [2]: 1.41

I154T
scaled log2 fold change [1]: -0.043
scaled log2 fold change [2]: -0.257

I154H
scaled log2 fold change [1]: 0.392
scaled log2 fold change [2]: 0.163

I154E
scaled log2 fold change [1]: 1.05
scaled log2 fold change [2]: 0.819

I154P
scaled log2 fold change [1]: 1.04
scaled log2 fold change [2]: 0.814

I154W
scaled log2 fold change [1]: 0.968
scaled log2 fold change [2]: 0.877

I154L
scaled log2 fold change [1]: 0.117
scaled log2 fold change [2]: 0.0996

I154V
scaled log2 fold change [1]: -0.0239
scaled log2 fold change [2]: -1.6

I154M
scaled log2 fold change [1]: 0.363
scaled log2 fold change [2]: 0.583

I154A
scaled log2 fold change [1]: 0.161
scaled log2 fold change [2]: 0.851

I154Q
scaled log2 fold change [1]: 0.399
scaled log2 fold change [2]: 0.268

I154Y
scaled log2 fold change [1]: 0.82
scaled log2 fold change [2]: 0.121

I154N
scaled log2 fold change [1]: 0.748
scaled log2 fold change [2]: 0.148

I154D
scaled log2 fold change [1]: 1.18
scaled log2 fold change [2]: 1.22

I154F
scaled log2 fold change [1]: 0.839
scaled log2 fold change [2]: 0.781

I154G
scaled log2 fold change [1]: 1.1
scaled log2 fold change [2]: 1.27

I154C
scaled log2 fold change [1]: -0.101
scaled log2 fold change [2]: 0.0571

I154S
scaled log2 fold change [1]: 0.481
scaled log2 fold change [2]: 0.0924

I154R
scaled log2 fold change [1]: 1.01
scaled log2 fold change [2]: 0.787

I154K
scaled log2 fold change [1]: 0.995
scaled log2 fold change [2]: 0.727

T157R
scaled log2 fold change [1]: 0.294
scaled log2 fold change [2]: 0.0556

T157E
scaled log2 fold change [1]: 0.0855
scaled log2 fold change [2]: -0.0584

T157Q
scaled log2 fold change [1]: 0.0955
scaled log2 fold change [2]: 1.04

T157I
scaled log2 fold change [1]: -0.909
scaled log2 fold change [2]: -0.784

T157Y
scaled log2 fold change [1]: 0.175
scaled log2 fold change [2]: -0.241

T157H
scaled log2 fold change [1]: -0.268
scaled log2 fold change [2]: -0.000268

T157A
scaled log2 fold change [1]: 0.304
scaled log2 fold change [2]: 0.871

T157S
scaled log2 fold change [1]: 0.365
scaled log2 fold change [2]: 0.742

T157L
scaled log2 fold change [1]: -0.0209
scaled log2 fold change [2]: -0.588

T157M
scaled log2 fold change [1]: 0.046
scaled log2 fold change [2]: 0.00875

T157P
scaled log2 fold change [1]: 0.927
scaled log2 fold change [2]: 0.296

T157G
scaled log2 fold change [1]: -0.366
scaled log2 fold change [2]: 0.895

T157K
scaled log2 fold change [1]: 0.0573
scaled log2 fold change [2]: -0.19

T157V
scaled log2 fold change [1]: -0.108
scaled log2 fold change [2]: -0.969

T157C
scaled log2 fold change [1]: 0.0208
scaled log2 fold change [2]: 0.206

T157F
scaled log2 fold change [1]: 0.0938
scaled log2 fold change [2]: 0.986

T157D
scaled log2 fold change [1]: 0.102
scaled log2 fold change [2]: -0.275

T157N
scaled log2 fold change [1]: -0.181

— the supplement of paper PMC12855868
